Several values for one entry are separate records, joined by “and”; a condition that tells them apart may be missing. Identical values can stand only once. Blank lines part the entries; values can stand above or below the binder they belong to.
Experiments:
[1] = target: M. fascicularis KLB and human FGFR1c co-expressed on HEK293/MfKLB/hFGFR1c/SRE-Luc cells (M. fascicularis; human, UniProt A0A2K5WB58 1-1044); test: cell-based or functional assay
[2] = target: T1, full-length human FGFR1c on HEK293/hFGFR1c/SRE-luc cells (human, UniProt P11362 22-822); test: FACS on stable HEK293 cells
T1 construct: amino acids 1-733 of NP_075593
Protocol: To determine binding specificity of the monoclonal anti-KLB/FGFR1c antibodies, the antibodies were tested in a fluorescence-activated cell sorting (FACS) binding assay to cell lines expressing human FGFR1c, human KLB, and both human FGFR1c and human KLB. HEK293 cell lines were generated that stably express full-length human FGFR1c (hFGFR1c; SEQ ID NO:433) or full-length human KLB (hKLB; SEQ ID NO:434) or both human FGFR1c and human KLB, along with a luciferase reporter [SRE (serum response element)-luciferase, SA Bioscience, #CLS-010L]. The resulting cell lines, referred to as HEK293/hFGFR1c/SRE-luc, HEK293/hKLB/SRE-luc, and HEK293/hKLB/hFGFR1c/SRE-luc, respectively, were maintained in DMEM supplemented with 10% FBS, NEAA, penicillin/streptomycin, 1 μg/mL puromycin and […] hygromycin B, 1 μg/mL puromycin and 500 μg/mL G418, or all three antibiotics.
For the FACS analysis, HEK293 parental, HEK293/hFGFR1c/SRE-luc, HEK293/hKLB/SRE-luc, and HEK293/hKLB/hFGFR1c/SRE-luc cells were dissociated and plated onto 96-well v-bottom plates at 5 x 10⁵ cells/well in PBS containing 1% FBS. […] Cells were filtered and subsequently analyzed on a Hypercyte Flow Cytometer (Intellicyt Corp.). Unstained and secondary antibody alone controls were also tested for binding to all cell lines. The results were analyzed using FlowJo version 9.52 software and geometric mean (Geom. Mean) of fluorescence for viable cells was determined. Geom. mean of fluorescence for each antibody was then normalized to Geom. mean of unstained cells to obtain relative binding of antibody (binding ratios) per each cell type.

[3] = target: T2, extracellular domain of human FGFR1c expressed with C-terminal V5 and hexahistidine tags (human, UniProt P11362 22-376); test: SPR, mAb captured, 25 C
T2 construct: also called hFGFR1c-V5-6His
T2 sequence: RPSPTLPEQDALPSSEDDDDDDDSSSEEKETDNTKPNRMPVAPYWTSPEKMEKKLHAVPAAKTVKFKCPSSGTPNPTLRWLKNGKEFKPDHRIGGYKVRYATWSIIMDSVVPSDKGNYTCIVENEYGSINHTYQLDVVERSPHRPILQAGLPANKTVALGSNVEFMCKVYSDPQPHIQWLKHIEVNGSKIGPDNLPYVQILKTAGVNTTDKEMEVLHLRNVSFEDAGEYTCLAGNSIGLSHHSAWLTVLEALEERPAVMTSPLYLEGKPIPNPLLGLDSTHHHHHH
Protocol: (§1) Equilibrium dissociation constants (KD values) for human KLB or human FGFR1c binding to purified anti-KLB/FGFR1c monoclonal antibodies were determined using a real-time surface plasmon resonance biosensor using a Biacore T-200 or 4000 instrument. The Biacore sensor surface was derivatized by amine coupling with either a polyclonal rabbit anti-mouse antibody (GE, # BR-1008-38) or with a monoclonal mouse anti-human Fc antibody (GE, # BR-1008-39) to capture anti-KLB/FGFR1c monoclonal antibodies expressed with either a mouse Fc or a human Fc, respectively. All Biacore binding studies were performed in a buffer composed of 0.01M HEPES pH 7.4, 0.15M NaCl, 3mM EDTA, 0.05% v/v Surfactant P20 (HBST running buffer). […] Association of hKLB-HA-6His or hFGFR1c-V5-6His to the captured monoclonal antibody was monitored for 3.5 to 4 minutes and the dissociation of hKLB-HA-6His or hFGFR1c-V5-6His in HBST running buffer was monitored for 8-12 minutes. All the binding kinetics experiments were performed at 25° C. or 37° C. Kinetic association (kₐ) and dissociation (kd) rate constants were determined by fitting the real-time sensorgrams to a 1:1 binding model using Scrubber 2.0c curve fitting software. Binding dissociation equilibrium constants (KD) and dissociative half-lives (t½) were calculated from the kinetic rate constants as: […]

[4] = target: T2, extracellular domain of human FGFR1c …; test: SPR, mAb captured, 37 C
Protocol: as §1

[5] = target: mouse KLB and mouse FGFR1c co-expressed on HEK293/mKLB/mFGFR1c/SRE-Luc cells (mouse); test: cell-based or functional assay
[6] = target: human KLB and human FGFR1c co-expressed on HEK293/hKLB/hFGFR1c/SRE-luc cells (human, UniProt Q86Z14 1-1044; P11362 22-822); test: cell-based or functional assay
[7] = target: cell-surface human FGFR1c (amino acids 1-731 of NP_075594) with cell-surface human KLB on … (human, UniProt P11362 22-822); test: cell-based or functional assay
[8] = target: T3, extracellular domain of human KLB expressed with C-terminal HA and hexahistidine tags (human, UniProt Q86Z14 1-996); test: SPR, mAb captured, 25 C
T3 construct: also called hKLB-HA-6His; hKLB-HA-6his
T3 sequence: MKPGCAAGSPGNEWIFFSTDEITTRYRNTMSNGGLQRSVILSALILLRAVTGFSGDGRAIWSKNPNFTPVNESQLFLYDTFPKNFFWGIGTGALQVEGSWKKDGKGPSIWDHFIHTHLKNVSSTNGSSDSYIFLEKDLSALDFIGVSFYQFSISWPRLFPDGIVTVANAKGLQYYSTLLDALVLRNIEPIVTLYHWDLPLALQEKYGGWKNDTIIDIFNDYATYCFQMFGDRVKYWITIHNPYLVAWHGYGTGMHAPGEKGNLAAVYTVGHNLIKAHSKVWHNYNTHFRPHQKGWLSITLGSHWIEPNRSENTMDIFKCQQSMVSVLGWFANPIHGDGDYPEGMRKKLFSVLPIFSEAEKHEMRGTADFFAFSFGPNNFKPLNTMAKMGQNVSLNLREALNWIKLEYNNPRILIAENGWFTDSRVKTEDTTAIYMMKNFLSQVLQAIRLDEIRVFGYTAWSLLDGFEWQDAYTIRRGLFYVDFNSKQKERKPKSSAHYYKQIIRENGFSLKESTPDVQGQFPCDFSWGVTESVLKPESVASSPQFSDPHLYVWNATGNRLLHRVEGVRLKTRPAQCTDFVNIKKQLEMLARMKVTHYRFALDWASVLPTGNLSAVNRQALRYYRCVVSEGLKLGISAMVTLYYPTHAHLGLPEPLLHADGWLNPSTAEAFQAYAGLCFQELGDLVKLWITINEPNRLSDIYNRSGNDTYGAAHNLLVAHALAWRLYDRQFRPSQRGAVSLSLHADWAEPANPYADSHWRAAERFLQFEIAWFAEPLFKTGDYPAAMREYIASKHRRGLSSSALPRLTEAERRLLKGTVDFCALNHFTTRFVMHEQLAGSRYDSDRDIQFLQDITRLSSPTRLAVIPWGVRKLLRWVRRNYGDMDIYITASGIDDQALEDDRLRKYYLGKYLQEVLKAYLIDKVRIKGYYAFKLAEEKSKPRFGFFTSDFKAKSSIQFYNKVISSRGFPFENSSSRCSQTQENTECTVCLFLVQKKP
Protocol: as §1

[9] = target: T3, extracellular domain of human KLB …; test: SPR, mAb captured, 37 C
Protocol: as §1

M. fascicularis KLB and human FGFR1c co-expressed on HEK293/MfKLB/hFGFR1c/SRE-Luc cells, sequence (chain, as listed by the source, chain 1 of 2): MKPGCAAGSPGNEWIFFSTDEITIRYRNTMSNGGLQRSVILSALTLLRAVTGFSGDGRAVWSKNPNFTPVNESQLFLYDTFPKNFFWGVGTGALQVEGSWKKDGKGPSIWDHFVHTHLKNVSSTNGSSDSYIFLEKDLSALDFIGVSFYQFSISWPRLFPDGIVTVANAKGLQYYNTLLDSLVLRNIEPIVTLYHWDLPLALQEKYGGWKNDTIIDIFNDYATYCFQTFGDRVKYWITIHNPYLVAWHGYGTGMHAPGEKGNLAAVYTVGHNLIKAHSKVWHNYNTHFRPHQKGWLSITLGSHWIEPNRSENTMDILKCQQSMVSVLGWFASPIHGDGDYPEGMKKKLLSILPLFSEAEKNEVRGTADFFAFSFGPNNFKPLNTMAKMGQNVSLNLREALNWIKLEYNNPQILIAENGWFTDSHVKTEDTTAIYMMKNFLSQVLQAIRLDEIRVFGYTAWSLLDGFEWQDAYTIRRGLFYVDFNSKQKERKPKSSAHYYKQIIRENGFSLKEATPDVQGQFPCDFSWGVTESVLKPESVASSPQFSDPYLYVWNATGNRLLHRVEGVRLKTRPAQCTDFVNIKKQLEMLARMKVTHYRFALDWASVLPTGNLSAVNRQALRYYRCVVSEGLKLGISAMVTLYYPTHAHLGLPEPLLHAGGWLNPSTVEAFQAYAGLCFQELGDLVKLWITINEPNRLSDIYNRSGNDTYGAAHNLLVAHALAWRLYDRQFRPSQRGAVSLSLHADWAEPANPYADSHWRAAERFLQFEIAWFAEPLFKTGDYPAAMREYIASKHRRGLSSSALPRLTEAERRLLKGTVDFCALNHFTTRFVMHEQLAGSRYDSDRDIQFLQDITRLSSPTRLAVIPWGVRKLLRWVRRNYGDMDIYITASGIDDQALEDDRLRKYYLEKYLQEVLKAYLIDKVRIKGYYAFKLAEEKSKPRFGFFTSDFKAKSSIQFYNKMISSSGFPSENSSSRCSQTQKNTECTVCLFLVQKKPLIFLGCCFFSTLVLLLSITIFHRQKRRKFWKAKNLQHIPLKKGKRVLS
M. fascicularis KLB and human FGFR1c co-expressed on HEK293/MfKLB/hFGFR1c/SRE-Luc cells, sequence (chain, as listed by the source, chain 2 of 2): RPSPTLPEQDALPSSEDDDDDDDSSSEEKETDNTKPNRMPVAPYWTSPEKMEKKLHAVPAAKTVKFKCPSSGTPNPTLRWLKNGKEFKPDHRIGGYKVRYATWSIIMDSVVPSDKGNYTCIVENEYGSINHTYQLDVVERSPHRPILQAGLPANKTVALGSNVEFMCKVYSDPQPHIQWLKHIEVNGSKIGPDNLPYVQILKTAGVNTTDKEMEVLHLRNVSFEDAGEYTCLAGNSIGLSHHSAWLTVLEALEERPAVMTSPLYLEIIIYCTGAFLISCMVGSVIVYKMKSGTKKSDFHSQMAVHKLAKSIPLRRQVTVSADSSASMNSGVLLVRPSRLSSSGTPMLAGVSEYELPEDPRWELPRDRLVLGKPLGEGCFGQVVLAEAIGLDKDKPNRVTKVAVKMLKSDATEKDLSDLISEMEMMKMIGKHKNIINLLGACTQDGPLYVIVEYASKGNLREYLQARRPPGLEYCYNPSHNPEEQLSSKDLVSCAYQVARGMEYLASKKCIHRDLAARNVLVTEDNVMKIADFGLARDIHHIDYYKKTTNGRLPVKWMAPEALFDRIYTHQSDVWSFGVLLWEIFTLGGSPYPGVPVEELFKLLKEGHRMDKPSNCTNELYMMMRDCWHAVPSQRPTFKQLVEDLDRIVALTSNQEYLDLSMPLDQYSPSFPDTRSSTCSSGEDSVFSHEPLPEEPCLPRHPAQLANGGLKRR
cell-surface human FGFR1c (amino acids 1-731 of NP_075594) with cell-surface human KLB on …, sequence (P11362 22-822): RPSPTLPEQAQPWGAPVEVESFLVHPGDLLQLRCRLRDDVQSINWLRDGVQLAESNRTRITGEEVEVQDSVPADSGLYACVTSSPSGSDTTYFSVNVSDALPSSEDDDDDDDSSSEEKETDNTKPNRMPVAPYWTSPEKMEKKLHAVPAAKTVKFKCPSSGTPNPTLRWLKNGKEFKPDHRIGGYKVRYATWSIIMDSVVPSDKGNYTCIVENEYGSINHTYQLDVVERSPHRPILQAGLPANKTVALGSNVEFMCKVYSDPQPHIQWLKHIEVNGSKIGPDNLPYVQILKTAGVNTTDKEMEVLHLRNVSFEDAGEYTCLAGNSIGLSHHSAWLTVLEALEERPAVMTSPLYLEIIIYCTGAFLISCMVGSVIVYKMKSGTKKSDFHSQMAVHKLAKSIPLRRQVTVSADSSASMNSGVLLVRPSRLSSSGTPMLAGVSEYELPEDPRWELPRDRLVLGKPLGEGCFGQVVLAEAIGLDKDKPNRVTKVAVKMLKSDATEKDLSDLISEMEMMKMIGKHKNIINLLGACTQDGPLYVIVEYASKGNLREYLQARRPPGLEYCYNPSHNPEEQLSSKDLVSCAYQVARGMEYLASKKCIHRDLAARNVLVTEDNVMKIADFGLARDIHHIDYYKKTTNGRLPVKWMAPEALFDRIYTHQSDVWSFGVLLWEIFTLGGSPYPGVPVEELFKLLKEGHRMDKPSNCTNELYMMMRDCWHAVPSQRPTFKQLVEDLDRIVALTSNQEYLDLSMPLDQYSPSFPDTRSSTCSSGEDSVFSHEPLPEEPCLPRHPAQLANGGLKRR
T1 sequence (P11362 other isoform, or with tags, fused parts or gaps limits assumed): as the sequence (chain, as listed by the source, chain 2 of 2) above

B1: H2bM8833N (antibody, V domains shown)
VH: QVQLVESGGGVVQPGRSLRLSCAASGFTFSRYGIHWVRQAPGKGLEWVAVIWYDGSNKYYADSLKGRFTISRDNSKNTLYLQMNSLRAEDTAVYYCARDQGNYIDYWGQGTLVTVSS
VL: AIQMTQSPSSLSASVGDRVTITCRTSQGIRNDLGWYQQKPGKVPKLLIYAASSLQSGVPSRFSGSGSGTDFTLTISSLQPEDFATYYCLQDYNYPFTFGPGTKVDIK
notes: mouse IgG2 Fc (H2bM prefix)
IC50, inhibition of 10 nM mfFGF21 [1]: 99 pM
Maximum Inhibition (%) of 10 nM mfFGF21 [1]: 16%
binding ratio to unstained cells [2]: 9 fold
180 nM hFGFR1c-V5-6His Bind (RU) [3]: 1.9 RU
180 nM hFGFR1c-V5-6His Bind (RU) [4]: 1.4 RU

B3: H2bM8096N (antibody, V domains shown)
VH: QVQLVESGGGVVQPGRSLRLSCAASGFTFSSYGLHWVRQAPGKGLEWVAVIWHDGSHKYYADSVKGRFTISRDNSKNTVYLQMNSLRAEDTAVYYCARDGIPVAEDYYLYGMDVWGQGTTVTVSS
VL: EIVLTQSPGTLSLSPGERATLSCRASQSVDSSYLAWYHQKPGQAPRLLIYGASSRATGIPDRFSGSGSGTDFTLTISRLEPEDFAVYYCQQYGSSRTFGQGTKVEIK
notes: mouse IgG2 Fc (H2bM prefix)
180 nM hFGFR1c-V5-6His Bind (RU) [3]: -0.7 RU
180 nM hFGFR1c-V5-6His Bind (RU) [4]: -1.2 RU

Continued, values first:

EC50, SRE-luc activation by ligand [5]: 330 pM and 370 pM
B2: mouse FGF21 (ligand, UniProt Q9JJN1 29-210, looked up)
chain: AYPIPDSSPLLQFGGQVRQRYLYTDDDQDTEAHLEIREDGTVVGAAHRSPESLLELKALKPGVIQILGVKASRFLCQQPDGALYGSPHFDPEACSFRELLLEDGYNVYQSEAHGLPLRLPQKDSPNQDATSWGPVRFLPMPGLLHEPQDQAGFLPPEPPDVGSSDPLSMVEPLQGRSPSYAS

EC50, SRE-luc activation without ligand [6]: 280 pM
IC50, inhibition of 1 nM 6His-hFGF21 [6]: 390 pM
Maximum Activation (%) [6]: 0.5%
Maximum Inhibition (%) [6]: 90%
% Activation [7]: 1.6%
EC50, SRE-luc activation [7]: > 5000 pM
180 nM hFGFR1c-V5-6His Bind (RU) [3]: 0.9 RU
binding result [3]: no binding (tested: 180 nM)
20 nM hKLB-HA-6His Bind (RU) [8]: 27.3 RU
Kd [8]: 318 pM
koff [8]: 3.94e-05 s⁻¹
kon [8]: 124000 M⁻¹ s⁻¹
t1/2 [8]: 4.89 h
180 nM hFGFR1c-V5-6His Bind (RU) [4]: 0.4 RU
20 nM hKLB-HA-6His Bind (RU) [9]: 86.7 RU
Kd [9]: 1300 pM
koff [9]: 0.000178 s⁻¹
kon [9]: 137000 M⁻¹ s⁻¹
t1/2 [9]: 1.08 h
B4: scFv8092N-IgG4mutFc x scFv8900P-IgG4mutFc* Heterodimer (bispecific antibody)
chain 1: not shown
chain 2: QVQLVESGGGVVQPGRSLRLSCVASGFTFSSYGMHWVRQAPGKGLEWVAVISFDGSNKYYADSVKGRFTISRDNSKNTLYLQMNSLRPADTAVYYCAKDRSNYYYFGMDVWGQGTTVTVSSGGGGSGGGGSGGGGSDIVMTQTPLSLPVTPGEPASISCRSSQSLLDSDDGNTYLDWYLQKPGQSPQLLIYTLSYRASGVPDRFSGSGSGTDFTLKISRVEAEDVGVYYCMQRIEFPLTFGGGTKVEIKGGGGSGGGGSGGGGSESKYGPPCPPCPAPEFLGGPSVFLFPPKPKDTLMISRTPEVTCVVVDVSQEDPEVQFNWYVDGVEVHNAKTKPREEQFNSTYRVVSVLTVLHQDWLNGKEYKCKVSNKGLPSSIEKTISKAKGQPREPQVYTLPPSQEEMTKNQVSLTCLVKGFYPSDIAVEWESNGQPENNYKTTPPVLDSDGSFFLYSRLTVDKSRWQEGNVFSCSVMHEALHNRFTQKSLSLSPGK
notes: also called 8900P ScFv-Fc*/8092N ScFv-Fc; H4H8900P ScFv-Fc*/H4H8092N ScFv-Fc
